# Experimental data published in patent publication US20230250148A1 (published 2023).
# Numbering of substitutions follows the chain as printed. Like-named read-outs stand apart in the source and are kept apart here.
# B1: insulin-Fc fusion protein of SEQ ID NO: 50 (Fc fusion)
# chain: FVNQHLCGSHLVEALALVCGERGFFYTDPTGGGGGGSGGGGGIVEQCCTSICSLYQLENYCGGGGAGGGGDCPKCPAPEMLGGPSVFIFPPKPKDTLLIARTPEVTCVVVDLDPEDPEVQISWFVDGKQMQTAKTQPREEQFSGTYRVVSVLPIGHQDWLKGKQFTCKVNNKALPSPIERTISKARGQAHQPSVYVLPPSREELSKNTVSLTCLIKDFFPPDIDVEWQSNGQQEPESKYRTTPPQLDEDGSYFLYSKLSVDKSRWQRGDTFICAVMHEALHNHYTQESLSHSPG
# B2: insulin-Fc fusion protein of SEQ ID NO: 44 (Fc fusion)
# chain: FVNQHLCGSHLVQALYLVCGERGFFYTDPTGGGPRRGIVEQCCTSICSLYQLENYCGGGGAGGGGDCPKCPAPEMLGGPSVFIFPPKPKDTLLIARTPEVTCVVVDLDPEDPEVQISWFVDGKQMQTAKTQPREEQFSGTYRVVSVLPIGHQDWLKGKQFTCKVNNKALPSPIERTISKARGQAHQPSVYVLPPSREELSKNTVSLTCLIKDFFPPDIDVEWQSNGQQEPESKYRTTPPQLDEDGSYFLYSKLSVDKSRWQRGDTFICAVMHEALHNHYTQESLSHSPG
# B3: insulin-Fc fusion protein of SEQ ID NO: 47 (Fc fusion)
# chain: B2 chain with Q13E, Y16A, F25Y
# B4: insulin-Fc fusion protein of SEQ ID NO: 45 (Fc fusion)
# chain: B2 chain with H10E, Q13E, Y16A
# B5: insulin-Fc fusion protein of SEQ ID NO: 55 (Fc fusion)
# chain: FVNQHLCGSHLVEALELVCGERGFFYTPKTGGSGGGGGIVEQCCTSTCSLDQLENYCGGGGGQGGGGQGGGGQGGGGGDCPKCPAPEMLGGPSVFIFPPKPKDTLLIARTPEVTCVVVDLDPEDPEVQISWFVDGKQMQTAKTQPREEQFNGTYRVVSVLPIGHQDWLKGKQFTCKVNNKALPSPIERTISKARGQAHQPSVYVLPPSREELSKNTVSLTCLIKDFFPPDIDVEWQSNGQQEPESKYRTTPPQLDEDGSYFLYSKLSVDKSRWQRGDTFICAVMHEALHNHYTQESLSHSPG
# B6: insulin-Fc fusion protein of SEQ ID NO: 57 (Fc fusion)
# chain: B5 chain with T27G, P28G, K29G, T30G
# B7: insulin-Fc fusion protein of SEQ ID NO: 56 (Fc fusion)
# chain: FVNQHLCGSHLVEALELVCGERGFHYGGGGGGSGGGGGIVEQCCTSTCSLDQLENYCNHGGGGQGGGGQGGGGQGGGGGDCPKCPAPEMLGGPSVFIFPPKPKDTLLIARTPEVTCVVVDLDPEDPEVQISWFVDGKQMQTAKTQPREEQFNGTYRVVSVLPIGHQDWLKGKQFTCKVNNKALPSPIERTISKARGQAHQPSVYVLPPSREELSKNTVSLTCLIKDFFPPDIDVEWQSNGQQEPESKYRTTPPQLDEDGSYFLYSKLSVDKSRWQRGDTFICAVMHEALHNHYTQESLSHSPG
# notes: Combined variant, canine IgGB Fc with native cNg
# B8: insulin-Fc fusion protein of SEQ ID NO: 28 (Fc fusion)
# chain: B7 chain with H59G
# B9: insulin-Fc fusion protein of SEQ ID NO: 42 (Fc fusion)
# chain: FVNQHLCGSDLVEALALVCGERGFFYTDPTGGGPRRGIVEQCCHSICSLYQLENYCNGGGGAGGGGDCPKCPAPEMLGGPSVFIFPPKPKDTLLIARTPEVTCVVVDLDPEDPEVQISWFVDGKQMQTAKTQPREEQFKGTYRVVSVLPIGHQDWLKGKQFTCKVNNKALPSPIERTISKARGQAHQPSVYVLPPSREELSKNTVSLTCLIKDFFPPDIDVEWQSNGQQEPESKYRTTPPQLDEDGSYFLYSKLSVDKSRWQRGDTFICAVMHEALHNHYTQESLSHSPG
# notes: non-glycosylated
# B10: insulin-Fc fusion protein of SEQ ID NO: 49 (Fc fusion)
# chain: FVNQHLCGSHLVQALYLVCGERGFFYTDPTQRGGGGGQRGIVEQCCTSICSLYQLENYCGGGGAGGGGDCPKCPAPEMLGGPSVFIFPPKPKDTLLIARTPEVTCVVVDLDPEDPEVQISWFVDGKQMQTAKTQPREEQFSGTYRVVSVLPIGHQDWLKGKQFTCKVNNKALPSPIERTISKARGQAHQPSVYVLPPSREELSKNTVSLTCLIKDFFPPDIDVEWQSNGQQEPESKYRTTPPQLDEDGSYFLYSKLSVDKSRWQRGDTFICAVMHEALHNHYTQESLSHSPG
# Key:
# [1] = target: T1, human insulin receptor (IR) on human IM-9 cells (human, UniProt P06213 28-1382); test: competition with biotinylated RHI on IM-9 cells, flow cytometry, 4 C
# T1 construct: whole, on cells; also called human IR
# Procedure: (§1) 40 µL of an IM-9 cell suspension (8×10⁶ cells/mL) was then added to each well by multichannel pipette, mixed again gently and incubated on ice for 30 min to allow competitive binding on the IR on IM-9 cells. Cells were then washed twice with 275µL of ice-cold FACS wash buffer (HBSS/2mM EDTA/0.1% Na-azide + 0.5% horse serum) by centrifuging the V-bottom plate at 3000 rpm for 3 min and aspirating the supernatant. Cells were then resuspended in 40µL of FACS staining medium containing 1:100 diluted Streptavidin-PE (Life Technologies) for 20 min on ice. Cells were then washed once with 275 µL of ice-cold FACS buffer and finally fixed with 3% paraformaldehyde for 10 min at room temp. Cells were then washed once with 275 µL of ice-cold FACS buffer and resuspended in 250µl of FACS buffer for analysis.
# The insulin-Fc fusion proteins were manufactured in HEK293 cells according to Example 1 and purified using a Protein A column according to Example 4. Their structures were confirmed according to Example 6 by non-reducing and reducing CE-SDS, and the sequences were further identified by LC-MS with glycan removal according to Example 8. Their %homodimer content was measured by size-exclusion chromatography according to Example 10, and their insulin receptor binding affinities were measured according to Example 12.
# [2] = target: T1, human insulin receptor (IR) on human …; test: as above; remark: listed apart in the source
# Procedure: as §1
# The lack of in vivo potency for the insulin-Fc fusion protein of SEQ ID NO: 43 correlates with its high IC50 (shown in Table 9 below) as measured by the insulin receptor binding assay according to the method of Example 12.
# [3] = target: T2, biotinylated recombinant human Fc(gamma)RI (human, UniProt P12314 16-288, biotinylated, site not stated); test: ELISA, fusion protein coated, biotinylated rhFc(gamma)RI in solution
# T2 construct: Bought reagent; construct not described; also called rhFc(gamma)RI; Fc(gamma) receptor I
# Procedure: The binding of insulin-Fc fusion proteins to the Fc(gamma)RI at pH 7.4 is conducted using an ELISA assay as follows using human Fc(gamma)RI (i.e., rhFc(gamma)RI). Insulin-Fc fusion proteins are diluted to 10 µg/mL in sodium bicarbonate buffer at pH 9.6 and coated on Maxisorp (Nunc) microtiter plates overnight at 4° C., after which the microplate strips are washed 5 times with PBST (PBS/0.05% Tween-20) buffer and blocked with Superblock blocking reagent (ThermoFisher). Serial dilutions of biotinylated rhFc(gamma)RI (recombinant human Fc(gamma)RI; R&D Systems) are prepared in PBST/10% Superblock buffer from 3000 ng/mL to 4.1 ng/mL and loaded at 100 µL/well onto the microplate strips coated with insulin-Fc fusion protein. The microtiter plate is incubated for 1 hour at room temperature after which time the microplate strips are washed 5 times with PBST and then loaded with 100 µL/well of streptavidin-HRP diluted 1:10000 in PBST/10% Superblock buffer. After incubating for 45 min, the microplate strips are washed again 5 times with PBST. TMB is added to reveal the bound Fc(gamma)RI proteins and is stopped with ELISA stop reagent (Boston Bioproducts). The plate is read in an ELISA plate reader at 450 nm, and the OD450 values (proportional to the binding of rhFc(gamma)RI to insulin-Fc protein) are plotted against log concentrations of rhFc(gamma)RI added to each well to generate binding curves using GraphPad Prism software. For groupings of compounds with somewhat similar curves, the OD450 at one of the higher concentrations, for instance at rhFc(gamma)RI concentrations of 3000 ng/mL, can be used to identify differences between coated insulin-Fc fusion protein compounds. […]
# T2 sequence (P12314 16-288 limits assumed): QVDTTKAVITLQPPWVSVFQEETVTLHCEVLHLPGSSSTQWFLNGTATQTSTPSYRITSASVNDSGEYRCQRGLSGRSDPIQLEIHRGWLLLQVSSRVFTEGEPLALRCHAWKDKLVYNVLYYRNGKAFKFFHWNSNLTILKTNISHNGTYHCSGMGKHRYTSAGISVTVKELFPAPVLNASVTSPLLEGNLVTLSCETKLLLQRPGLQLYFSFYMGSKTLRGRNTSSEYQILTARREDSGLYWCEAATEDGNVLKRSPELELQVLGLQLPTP
# T1 sequence (P06213 28-1382): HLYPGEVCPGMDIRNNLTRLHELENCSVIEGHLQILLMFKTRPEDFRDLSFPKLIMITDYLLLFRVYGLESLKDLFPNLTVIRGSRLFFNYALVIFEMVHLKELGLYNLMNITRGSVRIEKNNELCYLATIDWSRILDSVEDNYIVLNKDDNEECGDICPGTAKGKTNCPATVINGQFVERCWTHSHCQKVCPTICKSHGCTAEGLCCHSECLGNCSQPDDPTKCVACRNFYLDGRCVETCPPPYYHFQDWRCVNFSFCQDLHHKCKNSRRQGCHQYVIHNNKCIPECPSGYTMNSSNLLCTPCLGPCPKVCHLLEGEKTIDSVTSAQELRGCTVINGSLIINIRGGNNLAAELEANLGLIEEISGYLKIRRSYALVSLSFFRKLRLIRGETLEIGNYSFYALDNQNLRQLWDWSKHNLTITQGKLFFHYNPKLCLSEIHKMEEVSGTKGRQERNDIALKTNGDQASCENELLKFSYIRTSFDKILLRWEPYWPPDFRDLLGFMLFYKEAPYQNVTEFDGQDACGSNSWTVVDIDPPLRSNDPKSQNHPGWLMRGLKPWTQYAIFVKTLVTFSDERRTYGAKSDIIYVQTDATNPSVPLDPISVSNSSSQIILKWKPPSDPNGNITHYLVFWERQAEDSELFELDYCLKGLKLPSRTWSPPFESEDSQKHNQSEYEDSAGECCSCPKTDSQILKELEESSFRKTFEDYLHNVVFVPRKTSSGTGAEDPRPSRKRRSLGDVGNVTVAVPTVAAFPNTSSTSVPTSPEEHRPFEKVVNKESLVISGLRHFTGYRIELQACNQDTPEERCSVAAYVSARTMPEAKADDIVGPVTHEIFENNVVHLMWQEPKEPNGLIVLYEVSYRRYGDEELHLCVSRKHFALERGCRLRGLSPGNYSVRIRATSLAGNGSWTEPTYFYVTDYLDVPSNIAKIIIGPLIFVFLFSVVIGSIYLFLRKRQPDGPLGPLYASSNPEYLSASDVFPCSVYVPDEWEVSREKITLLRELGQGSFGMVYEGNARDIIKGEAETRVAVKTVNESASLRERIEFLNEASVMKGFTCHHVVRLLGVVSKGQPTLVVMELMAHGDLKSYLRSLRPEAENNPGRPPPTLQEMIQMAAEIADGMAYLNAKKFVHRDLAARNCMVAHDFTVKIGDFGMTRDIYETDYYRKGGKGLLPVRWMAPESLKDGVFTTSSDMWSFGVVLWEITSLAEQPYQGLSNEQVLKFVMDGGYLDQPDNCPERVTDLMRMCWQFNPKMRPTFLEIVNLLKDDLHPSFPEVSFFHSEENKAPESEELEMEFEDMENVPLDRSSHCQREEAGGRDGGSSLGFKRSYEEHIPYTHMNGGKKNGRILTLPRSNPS
Binder,IC50 [1] [nM],IC50 [2] [nM],also measured
B1,1610,–,–
B2,–,2620,–
B3,–,2400,–
B4,–,633,–
B5,3870,–,–
B6,2040,–,–
B7,554,–,–
B8,1250,–,–
B9,–,–,OD450nm [3]: 0.126; OD450nm minus assay background [3]: 0.063; ratio to SEQ ID NO: 36 [3]: 0.2
B10,4180,–,–
